According to the DeepSol protein solubility set:

Assay: soluble on expression in E. coli; label from the status in PepcDB or PDB records

Q: For “MSETELRKRQAQFTRELHGDDIGKKTGLSALMSKNNSAQKEAVQKYLRNWDGRTDKDAEERRLEDYNEATHSYYNVVTDFYEYGWGSSFHFSRFYKGESFAASIARHEHYLAYKAGIQRGDLVLDVGCGVGGPAREIARFTGCNVIGLNNNDYQIAKAKYYAKKYNLSDQMDFVKGDFMKMDFEENTFDKVYAIEATCHAPKLEGVYSEIYKVLKPGGTFAVYEWVMTDKYDENNPEHRKIAYEIELGDGIPKMFHVDVARKALKNCGFEVLVSEDLADNDDEIPWYYPLTGEWKYVQNLANLATFFRTSYLGRQFTTAMVTVMEKLGLAPEGSKEVTAALENAAVGLVAGGKSKLFTPMMLFVARKPENAETPSQTSQEATQ”, which “soluble on expression in E. coli” value is on record?
A: The value was “soluble”.

Q: For “MESKAKTTVTFHSGILTIGGTVIEVAYKDAHIFFDFGTEFRPELDLPDDHIETLINNRLVPELKDLYDPRLGYEYHGAEDKDYQHTAVFLSHAHLDHSRMINYLDPAVPLYTLKETKMILNSLNRKGDFLIPSPFEEKNFTREMIGLNKNDVIKVGEISVEIVPVDHDAYGASALLIRTPDHFITYTGDLRLHGHNREETLAFCEKAKHTELLMMEGVSISFPEREPDPAQIAVVSEEDLVQHLVRLELENPNRQITFNGYPANVERFAKIIEKSPRTVVLEANMAALLLEVFGIEVRYYYAESGKIPELNPALEIPYDTLLKDKTDYLWQVVNQFDNLQEGSLYIHSDAQPLGDFDPQYRVFLDLLAKKDITFVRLACSGHAIPEDLDKIIALIEPQVLVPIHTLKPEKLENPYGERILPERGEQIVL”, which “soluble on expression in E. coli” value is on record?
A: The value was “soluble”.

Q: With “MGLREIEKVTVFCLANENTDISYEVNRALGEIRIYVPYDFMDFLALNSVEEKYKEFCKLVRQYVVPGLEENSTLSSSVVKGYIEESLDEIVKQNYEGIFLVGKTPKKSPSRKKIAILKGIHRVKGFQLRCEVYDEKGLKIRDQLLVEEVGNEMVYSRFLGTLKWESENLIVVQSKSSSWKEEIYL” as the sequence, how does the “soluble on expression in E. coli” value read?
A: The value was “not soluble”.

Q: For “MAIVGQPNLRELFDDAPTPHIAHPPHTHRRDFYVATDGSYASDGAGLGVIIETRDGSRVLRRSVPDTAPDNNVAEYRALHLGLDTLAARTPPDASVGVLVDHDALAGDVNSAVLATQRRDYQPVRAFSAPRDARHHWRGIRARVTGFAEIRAAQVDSSRNPAHALANEPSQYAHVNDEPDRCLLPDATTSTEPQIPPPSRSDRPAGDLEHHHHHH”, which “soluble on expression in E. coli” value is on record?
A: Its value is “not soluble”.

Q: With “MPELPEVETTRRRLRPLVLGQTLRQVVHRDPARYRNTALAEGRRILEVDRRGKFLLFALEGGVELVAHLGMTGGFRLEPTPHTRAALVLEGRTLYFHDPRRFGRLFGVRRGDYREIPLLLRLGPEPLSEAFAFPGFFRGLKESARPLKALLLDQRLAAGVGNIYADEALFRARLSPFRPARSLTEEEARRLYRALREVLAEAVELGGSTLSDQSYRQPDGLPGGFQTRHAVYGREGLPCPACGRPVERRVVAGRGTHFCPTCQGEGP” as the sequence, how does the “soluble on expression in E. coli” value read?
A: Its value is “soluble”.

Q: Which “soluble on expression in E. coli” value does the source give for “MSLSETLRLGLICAGRMGSFHGQTAALRIPGACLAAIADPTPGQAARLATELGVERFYTDPQQLLDDPDIDGVLIAAPARSHAELVISAARAGKGVFCEKPMAITLDEADRAIAAAADAQVTLQVGFNRRFAKSFRTAHLDVVAGRIGTPQLLRSLTRDPALNNPAASPQWVIFLETLIHDFDSLRYLNPGAEAVEVFVMADALIAPDYKSKGFLDTAVVTIRFDNGAIATAEANFQAVYGYDVRGEVFGSAGMLTMGSVNDSDLVRYLANGIQSDTQRLDTDLLRDAYVAELNHFADCLRTGAKPLASGEDARAALAIARACIESFQLGKAVRVEGARSEGHHHHHH” here?
A: Its value is “not soluble”.

Q: With “MVIINTAAYHFVSITQPQTLADQIRAHGEIAGLKGTVLIANEGINLFLAGEKEAINAFYAWLCADVRFAALHVKYSVSAYKPFARFKVKVRPEIISFRRGDISPLQVRAPGVSAHTLRDWLRRGCDDNGRRLVMLDARNQQEIAYGTFSGAMTLPITKFTGFPGALAHYRDLLSDATVVSFCTGGIRCEKAVLWMRADGMDNVLQLEGGILGYFEQVGGEGYDGRCFVFDKRVALDPQLRPLYDMRVVASFARSEISLEHHHHHH” as the sequence, how does the “soluble on expression in E. coli” value read?
A: The value was “not soluble”.

Q: Which “soluble on expression in E. coli” value does the source give for “MVKTMKWARIGDIIVLNREADDPEALLEMEGVRSVIRVEGIHGPLRRPRVRVLAGSGTETVHKENGCLFRIDLSRVMWSRGNINERARIPSLVEEGETVVDMFAGIGYFSIPVAVHSDPGRVYSVELNPDSFELLKSNITLNRVEGIIEPILGDCREVAPELDADRVIMGYVGRTHHFLDAAMECVRDGGVIHYHETAPEAIRFSRPLRRIERAAHPRRVSLLDKRVIKKYSPGVWHVVLDVRIH” here?
A: The value was “soluble”.

Q: Which “soluble on expression in E. coli” value does the source give for “DLHEILHEAVPLDANEREILELKEDAFAQRRREIETRLRAANGKLADAIAKNPAWSPEVEAATQEVERAAGDLQRATLVHVFEMRAGLKPEHRPAYDRVLIDALRRGSQ” here?
A: Its value is “soluble”.

Q: With “MGSDKIHHHHHHMTTTYPDFLGNSSLQTDTEHWEMEGGAQEVSVTYVLDTSVLLSDPLSLTRFAEHDVVLPIVVITELEAKRHHPDLGFFARQALRMLDELREIHGDLSKPLPIGDEGGHIHVELNHQNTGSLPVGFRLGDNDTRILAVAKNLQEEGHNVVLVSKDLPMRIKASASGIAAQEYRAALARDRGYTGMTHANITDDQLSELYDTGEVRIEELEKLPVNHGFTLKSNSGSALGRMNSDKIIELVPGDQQVFGISGRSAEQRVAIDLLNDDAVGIVSIGGPAGTGKSALALCAGLEAVMERRIQRKIIVFRPLFAVGGQELGYLPGDQEEKMGPWAQAVFDTLSSMVSQNIIDEALSRGLIEVLPLTHIRGRSLHDAFVIVDEAQSLERNVLLTMLSRIGQNSRVVLTHDVAQRDNLRVGRYDGIVSVVEALKDHELFGHITLQRSERSRIAELVTQVLDAPSL” as the sequence, how does the “soluble on expression in E. coli” value read?
A: Its value is “not soluble”.

Q: With “MTLRKILALTCLLLPMMASAHQFETGQRVPPIGITDRGELVLDKDQFSYKTWNSAQLVGKVRVLQHIAGRTSAKEKNATLIEAIKSAKLPHDRYQTTTIVNTDDAIPGSGMFVRSSLESNKKLYPWSQFIVDSNGVALGAWQLDEESSAVVVLDKDGRVQWAKDGALTPEEVQQVMDLLQKLLK” as the sequence, how does the “soluble on expression in E. coli” value read?
A: Its value is “not soluble”.

Q: For “MSLDAISAATHSDPYFYYTRLRARGGLTYDCALRLWVASSAAAVAAVLDHPACQVRPSTEPVPQAIAGRPAGQLFGRLMRMNDGPRQRCPRAAIEPALQGLCTAGLETHLARWQPALAGPACAADLQRWQFVLPVALLASLLGVPAEQCETLARRTGEFVACFSPLSDQPRLQAADRAALELDAQMQALVQAPQHSPLLRQILDRSGELAPADLRANLAGLLAQTHDACAGLVGNSLVALLAAPAMQQRLRQEPGLLGDWLLERQRLDPPVQNTRRFVTAPCTVHGVELQAGETILVLLAAANQDPALAAITGSNPAHQGFSFGAGAHRCPGRELALGIVRCLLHALLQGPGLDALALDWQYQASVNGRIPLFSDRGEAEGHHHHHH”, which “soluble on expression in E. coli” value is on record?
A: Its value is “not soluble”.

Q: For “AHHHHHHGSVNIMDEIIVVTTPTIPGYKIIEVKGIARGGIVMATHLGRDILALLRNIKGGEVKEYTQMMAEAREEALRRMIEHAKKLGANAVVNFRFATSNVGGGMAEVYAYGTAVVVEREK”, which “soluble on expression in E. coli” value is on record?
A: The value was “not soluble”.

Q: For “MLREKAMRSWKPIALGVTLALSSQFSWAAVIETTRLVGFGEAKYPENFTHFDYVNPQAPKYGKVTFGELGTYDNFNRFASRGVAAANTAELYDPLMFSPADEIDSYYPLIASKIRYSDDFTWLEIDLNPNARFHDGKPITAQDVEFSFEKFMAEGVPQYRVYYQDVKSVKAIAERTVRIEMKQPNREQLFSLAQSTRVLPKHYWQYKNLAEPLNEPPVGSGAYQIVDFKPGQSVTYKLNPDYWAKDLPVNVGRNNFAQIQYDYYRDDTVMLEAFKAGEFDLREENQAKFWATSYTGRNFDQGLIKKEEIAHQAPASTQGFIFNTQRPVFQDVRVREALNYALDFEWMNKNLFYDQYQRTRSYFQNTEYEAQGLPNAAELAVLTPYKEQLPARVFTETYQPSVTDGSGRIRTQMREAFALLKEAGWELKNKVMTNVKTGEPLSFELLIYSPTTERIAIPLQKNLQLMGIEMKIRTVDTTQYTKRLRDRDFDMISHGFSANPYPSPNLLIVWNSNYMDSSYNSAGANHPVIDALTEQIAKSQQDTEKLRALGSALDRVLQWNFYIIPQWHLSMYRVAMWDKFSRPSVLPKYSLGLDTWWIDQEKAARLPEKRR”, which “soluble on expression in E. coli” value is on record?
A: Its value is “not soluble”.
